From US20250042943A1, “FAP DETECTION” (THE UNIVERSITY COURT OF THE UNIVERSITY OF EDINBURGH, priority 2021, published 2025)

How the values were obtained:
rhFAP = target: T1, rhFAP (Homo sapiens, UniProt Q12884); test: Probe cleavage by recombinant human FAP (fluorescence read); assay type: biochemical
T1 sequence (Q12884 1-760): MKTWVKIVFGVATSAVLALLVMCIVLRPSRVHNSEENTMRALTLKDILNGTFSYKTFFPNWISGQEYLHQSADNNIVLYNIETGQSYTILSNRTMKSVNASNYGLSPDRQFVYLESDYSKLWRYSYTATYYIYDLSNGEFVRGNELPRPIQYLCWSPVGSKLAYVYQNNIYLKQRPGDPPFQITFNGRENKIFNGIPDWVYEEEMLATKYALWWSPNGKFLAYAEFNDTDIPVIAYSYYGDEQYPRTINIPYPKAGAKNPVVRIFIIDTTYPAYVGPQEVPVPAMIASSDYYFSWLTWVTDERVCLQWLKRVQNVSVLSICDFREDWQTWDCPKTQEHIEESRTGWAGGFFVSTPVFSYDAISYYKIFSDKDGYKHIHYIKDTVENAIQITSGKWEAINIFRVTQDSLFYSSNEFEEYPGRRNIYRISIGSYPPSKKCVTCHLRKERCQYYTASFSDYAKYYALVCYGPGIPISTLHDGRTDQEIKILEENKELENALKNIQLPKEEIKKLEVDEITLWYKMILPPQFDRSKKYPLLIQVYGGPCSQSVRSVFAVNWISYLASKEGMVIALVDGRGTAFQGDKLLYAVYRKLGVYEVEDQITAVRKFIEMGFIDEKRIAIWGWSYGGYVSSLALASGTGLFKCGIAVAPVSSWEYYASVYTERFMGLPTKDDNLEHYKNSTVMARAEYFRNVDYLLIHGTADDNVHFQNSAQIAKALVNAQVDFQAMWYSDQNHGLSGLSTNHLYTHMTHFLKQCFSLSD

rhDPPIV = rhDPPIV (Homo sapiens, UniProt P27487); test: Probe cleavage by recombinant human DPPIV (exopeptidase activity); assay type: biochemical; settings: probe 5 μM, enzyme 0.1 μg/ml, read 480/530 nm
rhDPPIV, sequence (P27487 whole entry): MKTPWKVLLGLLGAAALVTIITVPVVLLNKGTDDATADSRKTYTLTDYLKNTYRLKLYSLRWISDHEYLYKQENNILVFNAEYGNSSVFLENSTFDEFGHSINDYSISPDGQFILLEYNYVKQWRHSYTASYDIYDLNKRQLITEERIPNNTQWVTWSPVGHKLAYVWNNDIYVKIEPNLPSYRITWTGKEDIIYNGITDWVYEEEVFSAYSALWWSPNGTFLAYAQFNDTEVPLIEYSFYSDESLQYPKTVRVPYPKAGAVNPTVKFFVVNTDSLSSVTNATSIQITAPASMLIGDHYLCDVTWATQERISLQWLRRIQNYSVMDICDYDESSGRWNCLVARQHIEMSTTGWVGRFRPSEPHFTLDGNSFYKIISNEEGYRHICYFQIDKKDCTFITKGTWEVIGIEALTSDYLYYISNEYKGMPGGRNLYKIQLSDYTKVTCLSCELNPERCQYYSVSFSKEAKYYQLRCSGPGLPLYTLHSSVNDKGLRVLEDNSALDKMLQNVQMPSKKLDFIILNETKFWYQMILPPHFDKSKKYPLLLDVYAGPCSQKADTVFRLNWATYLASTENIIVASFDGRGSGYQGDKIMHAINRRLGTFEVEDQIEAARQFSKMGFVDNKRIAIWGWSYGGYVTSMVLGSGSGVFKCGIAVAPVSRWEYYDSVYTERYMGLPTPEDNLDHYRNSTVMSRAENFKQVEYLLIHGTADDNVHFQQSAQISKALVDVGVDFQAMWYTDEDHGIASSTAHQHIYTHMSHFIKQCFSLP

[1] = test system: activated neutrophil lysate; test: Assessment on activated neutrophil lysate; settings: data not shown
rhPREP = target: T2, rhPREP (Homo sapiens, UniProt P48147); test: Probe cleavage by recombinant human PREP; assay type: biochemical; settings: probe 5 μM, enzyme 0.1 μg/ml, read 480/530 nm
T2 sequence (P48147 1-710): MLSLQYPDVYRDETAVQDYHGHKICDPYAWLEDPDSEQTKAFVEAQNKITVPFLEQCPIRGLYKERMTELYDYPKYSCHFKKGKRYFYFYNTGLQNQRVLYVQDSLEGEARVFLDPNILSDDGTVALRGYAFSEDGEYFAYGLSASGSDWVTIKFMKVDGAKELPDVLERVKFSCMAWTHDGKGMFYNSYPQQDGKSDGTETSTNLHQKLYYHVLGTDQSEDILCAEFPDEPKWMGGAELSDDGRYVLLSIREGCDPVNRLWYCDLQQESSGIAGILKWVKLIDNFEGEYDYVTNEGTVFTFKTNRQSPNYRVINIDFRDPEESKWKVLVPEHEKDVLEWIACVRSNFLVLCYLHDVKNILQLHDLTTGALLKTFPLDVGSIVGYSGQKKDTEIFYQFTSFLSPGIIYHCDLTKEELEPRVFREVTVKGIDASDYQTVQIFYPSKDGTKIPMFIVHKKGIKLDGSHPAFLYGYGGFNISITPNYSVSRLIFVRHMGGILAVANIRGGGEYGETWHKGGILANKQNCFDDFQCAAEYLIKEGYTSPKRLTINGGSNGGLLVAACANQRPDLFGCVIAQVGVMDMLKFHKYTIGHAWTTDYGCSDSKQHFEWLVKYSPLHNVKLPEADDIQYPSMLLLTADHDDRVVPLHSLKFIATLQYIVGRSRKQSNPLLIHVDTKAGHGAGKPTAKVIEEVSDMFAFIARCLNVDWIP

FAP = target: T3, FAP (Homo sapiens, UniProt Q12884); settings: Bainbridge et al; cited from earlier work
T3 sequence (Q12884 24-760 limits assumed): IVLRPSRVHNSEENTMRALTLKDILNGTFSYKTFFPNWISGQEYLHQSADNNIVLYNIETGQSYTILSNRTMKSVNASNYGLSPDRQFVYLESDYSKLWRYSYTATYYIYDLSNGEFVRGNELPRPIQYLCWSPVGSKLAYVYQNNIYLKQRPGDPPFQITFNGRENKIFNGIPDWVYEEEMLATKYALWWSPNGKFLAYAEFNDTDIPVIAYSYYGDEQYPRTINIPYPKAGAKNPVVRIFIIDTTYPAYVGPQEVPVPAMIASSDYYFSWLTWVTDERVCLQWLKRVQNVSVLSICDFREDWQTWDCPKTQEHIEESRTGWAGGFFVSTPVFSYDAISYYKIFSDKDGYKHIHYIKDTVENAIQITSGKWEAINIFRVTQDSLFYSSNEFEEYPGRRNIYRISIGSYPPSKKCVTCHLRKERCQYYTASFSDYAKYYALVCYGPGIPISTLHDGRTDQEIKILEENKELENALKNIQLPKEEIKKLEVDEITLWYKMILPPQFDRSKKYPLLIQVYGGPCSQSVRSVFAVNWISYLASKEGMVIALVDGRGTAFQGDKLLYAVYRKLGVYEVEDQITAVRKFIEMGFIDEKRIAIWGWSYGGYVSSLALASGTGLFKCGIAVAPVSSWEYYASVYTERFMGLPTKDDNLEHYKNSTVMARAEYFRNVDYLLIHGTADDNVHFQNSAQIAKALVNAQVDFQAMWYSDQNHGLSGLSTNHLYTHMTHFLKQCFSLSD

Substance	signal (relative fluorescence intensity) with rhFAP (rhFAP; comparison between probe iterations)	FAP specificity (over PREP) (rhFAP; from recombinant enzyme assessment)	cleavage by rhDPPIV (exopeptidase activity) (rhDPPIV)	MALDI-TOF analysis of probe after activated neutrophil lysate [1]	cleavage by rhPREP (rhPREP)	cleavage by rhPREP (rhPREP; listed as FAP-sp)	specificity over PREP (FAP)
Lys(MethylRed)-Val-(D)Ser-Pro-Ser-Gln-Gly-Lys(5-FAM)-[Peg2-(D)Lys]3-NH2 [FAP-sP, reference compound]	improved signal characteristics	FAP specificity	no cleavage	all FAP-sP probe was cleaved	no cleavage	no rhPREP cleavage	–
VsPSQG	–	–	–	–	–	–	specificity over PREP
